Target: HA-1 “H” peptide (…) presented on LCL222 cells (H/H)
Experiment: cell-based or functional assay

B1: anti-HA-1 “H” epitope TCR (TCR, V domains shown)
V domain 1: AQSVAQPEDQVNVAEGNPLTVKCTYSVSGNPYLFWYVQYPNRGLQFLLKYITGDNLVKGSYGFEAEFNKSQTSFHLKKPSALVSDSALYFCAVRAPTSGTYKYIFGTGTRLKVLA
V domain 2: GVSQDPRHKITKRGQNVTFRCDPISEHNRLYWYRQTLGQGPEFLTYFQNEAQLEKSRLLSDRFSAERPKGSFSTLEIQRTEQGDSAMYLCASSLVSGNEQFFGPGTRLTVLE
  E:T ratio at which target cells were almost undetectable, cytotoxicity killing assay: 1.38 E:T ratio
  EC50, cytotoxicity killing assay (E:T ratio): 0.49 E:T ratio

Source: patent US20250242021A1 (BLUESPHERE BIO, published 2025)
